Consider 7 molecules from patent US20150119341A1 (PALATIN TECHNOLOGIES, published 2015).

For experiment [1], the target named is T1, human melanocortin-1 receptor (hMCR-1) expressed by the human melanoma cell line HBL (human, UniProt Q01726 1-317). Put plainly: cell-based or functional assay.
The target of experiment [2] is T1, human melanocortin-1 receptor (hMCR-1) …. The experiment can be described thus: cell-based or functional assay. This is another data set of the same source.
Experiment [3] has the same target. Put plainly: cell-based or functional assay. The source holds these as a separate data set.
In experiment [4] the target is T2, recombinant human melanocortin-1 receptor (hMCR-1a) in membrane homogenates of HEK-293 cells (human, UniProt Q01726 1-317).
T2 construct: whole, on cells; Used as membrane homogenates, not intact cells; also called hMCR-la; MC-1
The experiment can be described thus: competitive inhibition of [I125]-NDP-alpha-MSH, hMCR-1 HEK-293 membranes. As for the experimental part: (§1) A competitive inhibition binding assay was performed using membrane homogenates prepared from HEK-293 cells that express recombinant hMCR-la or hMCR-4 (in each instance where the h prefix refers to human), or alternatively membrane homogenates from B16-F10 mouse melanoma cells containing endogenous murine MCR-1. In the examples that follow, all MCR-1 and MCR-4 values are for human recombinant receptors, unless otherwise noted. Assays were performed in 96 well polypropylene round-bottom plates (VWR catalog number 12777-030).
(§2) Membrane homogenates were incubated with 0.1 nM [I¹²⁵]-NDP-α-MSH (Perkin Elmer) and increasing concentrations of test peptides of the present invention in buffer containing 25 mM HEPES buffer (pH 7.5) with 100 mM NaCl, 2 mM CaCl₂, 2 mM MgCl₂, 0.3 mM 1,10-phenanthroline, and 0.2% bovine serum albumin. After incubation for 90 minutes at 37° C., the assay mixture was filtered onto GF/B Unifilter plates (Perkin-Elmer catalog number 6005177) and washed with 3 mL of ice-cold buffer per well. Filters were air dried and 35 μL of scintillation cocktail added to each well. Plates were counted in a Microbeta counter for bound radioactivity. […] Maximal specific binding (100%) was defined as the difference in radioactivity (cpm) bound to cell membranes in the absence and presence of 1 μM NDP-α-MSH. Each assay was conducted in duplicate and the actual mean values are described, with results less than 0% reported as 0%. Ki values for peptides of the present invention were determined using Graph-Pad PRISM® curve-fitting software.

The target in experiment [5] is T3, recombinant human melanocortin-4 receptor (hMCR-4) in membrane homogenates of HEK-293 cells (human, UniProt P32245 1-332).
T3 construct: whole, on cells; Used as membrane homogenates, not intact cells; also called MC-4
Put plainly: competitive inhibition of [I125]-NDP-alpha-MSH, hMCR-4 HEK-293 membranes. Here is the method: as §1, §2

The target in experiment [6] is T1, human melanocortin-1 receptor (hMCR-1) …. The experiment can be described thus: cell-based or functional assay. This is another data set of the same source.
The target is the same in experiment [7]. The experiment can be described thus: cell-based or functional assay. The source holds these as a separate data set.
For experiment [8] the target is unchanged. Put plainly: cell-based or functional assay. This is another data set of the same source.
Experiment [9] shares this target. Put plainly: cell-based or functional assay. The source holds these as a separate data set.

Where two headings read alike, the source gives them in different places. [ ]: non-standard residue; d: D form. Nle = CCCC[C@H](N)C(=O)O; Orn = NCCC[C@H](N)C(=O)O; Dab = NCC[C@H](N)C(=O)O; Sar = CNCC(=O)O

T1 sequence (Q01726 whole entry): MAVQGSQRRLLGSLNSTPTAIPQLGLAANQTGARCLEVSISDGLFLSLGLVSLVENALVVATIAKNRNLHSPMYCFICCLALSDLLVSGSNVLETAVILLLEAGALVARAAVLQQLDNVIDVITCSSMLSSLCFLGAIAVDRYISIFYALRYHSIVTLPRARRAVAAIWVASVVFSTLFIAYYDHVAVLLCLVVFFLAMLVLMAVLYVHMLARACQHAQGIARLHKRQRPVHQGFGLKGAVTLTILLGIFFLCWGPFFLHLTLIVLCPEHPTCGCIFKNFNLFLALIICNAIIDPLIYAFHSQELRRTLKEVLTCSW
T2 sequence (Q01726 whole entry): as above
T3 sequence (P32245 whole entry): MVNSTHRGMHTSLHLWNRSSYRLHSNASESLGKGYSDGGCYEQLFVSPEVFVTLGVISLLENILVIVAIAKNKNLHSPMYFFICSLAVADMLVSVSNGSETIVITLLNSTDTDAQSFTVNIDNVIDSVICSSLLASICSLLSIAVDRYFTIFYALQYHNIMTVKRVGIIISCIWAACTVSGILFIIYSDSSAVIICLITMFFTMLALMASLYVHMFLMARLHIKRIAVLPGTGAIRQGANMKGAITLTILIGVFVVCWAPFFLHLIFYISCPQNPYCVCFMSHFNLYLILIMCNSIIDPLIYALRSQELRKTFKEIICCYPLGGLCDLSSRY

B1: Ac-Nle-Ala-Orn-D-Phe-Arg-Ala-Trp-NH2 (peptide)
peptide: Ac-[Nle]A[Orn][dF]RAW-NH2
SMILES: CCCC[C@H](NC(C)=O)C(=O)N[C@@H](C)C(=O)N[C@@H](CCCN)C(=O)N[C@H](Cc1ccccc1)C(=O)N[C@@H](CCCNC(=N)N)C(=O)N[C@@H](C)C(=O)N[C@@H](Cc1c[nH]c2ccccc12)C(N)=O
For the molecule B1, the “MC-1 EC50 (average; cAMP HBL)” value in [1] stood at 0.045 nM.

B2: Ac-Nle-Ala-His-D-Phe-Arg-Sar-Trp-NH2 (peptide)
peptide: Ac-[Nle]AH[dF]R[Sar]W-NH2
SMILES: CCCC[C@H](NC(C)=O)C(=O)N[C@@H](C)C(=O)N[C@@H](Cc1c[nH]cn1)C(=O)N[C@H](Cc1ccccc1)C(=O)N[C@@H](CCCNC(=N)N)C(=O)N(C)CC(=O)N[C@@H](Cc1c[nH]c2ccccc12)C(N)=O
B2: the “MC-1 EC50 (average; cAMP HBL)” value in experiment [2] came out at 0.17 nM.

B3: Ac-Nle-Ala-His-D-Phe-Arg-Gly-Trp-NH2 (peptide)
peptide: Ac-[Nle]AH[dF]RGW-NH2
SMILES: CCCC[C@H](NC(C)=O)C(=O)N[C@@H](C)C(=O)N[C@@H](Cc1c[nH]cn1)C(=O)N[C@H](Cc1ccccc1)C(=O)N[C@@H](CCCNC(=N)N)C(=O)NCC(=O)N[C@@H](Cc1c[nH]c2ccccc12)C(N)=O
notes: synthetic linear peptide
As usually defined, the Ki is a measure of affinity in units of concentration, obtained from inhibition or displacement. Turning to B3, in experiment [3], the “MC-1 EC50 (average; cAMP HBL)” value was 0.038 nM. Further, the figures for the Ki in experiment [4] and in experiment [5] were 0.8 nM and 885 nM, respectively.

B4: Ac-Nle-Ala-Phe-D-Phe-Arg-Ala-Trp-NH2 (peptide)
peptide: Ac-[Nle]AF[dF]RAW-NH2
SMILES: CCCC[C@H](NC(C)=O)C(=O)N[C@@H](C)C(=O)N[C@@H](Cc1ccccc1)C(=O)N[C@H](Cc1ccccc1)C(=O)N[C@@H](CCCNC(=N)N)C(=O)N[C@@H](C)C(=O)N[C@@H](Cc1c[nH]c2ccccc12)C(N)=O
notes: synthetic linear peptide
B4: the “MC-1 EC50 (average; cAMP HBL)” value in experiment [6] worked out at 6 nM. The inhibition constant Ki in experiment [4] stood at 20 nM; in experiment [5], 1620 nM.

B5: Ac-Nle-Ala-Lys-D-Phe-Arg-Ala-Trp-NH2 (peptide)
peptide: Ac-[Nle]AK[dF]RAW-NH2
SMILES: CCCC[C@H](NC(C)=O)C(=O)N[C@@H](C)C(=O)N[C@@H](CCCCN)C(=O)N[C@H](Cc1ccccc1)C(=O)N[C@@H](CCCNC(=N)N)C(=O)N[C@@H](C)C(=O)N[C@@H](Cc1c[nH]c2ccccc12)C(N)=O
notes: synthetic linear peptide
On to B5, for which the “MC-1 EC50 (average; cAMP HBL)” value in [7] came to 0.1 nM. For the same molecule, the Ki in experiment [4] was 4 nM; in experiment [5] it was 10000 nM.

B6: Ac-Nle-His-D-Phe-Arg-Ala-Trp-NH2 (peptide)
peptide: Ac-[Nle]H[dF]RAW-NH2
SMILES: CCCC[C@H](NC(C)=O)C(=O)N[C@@H](Cc1c[nH]cn1)C(=O)N[C@H](Cc1ccccc1)C(=O)N[C@@H](CCCNC(=N)N)C(=O)N[C@@H](C)C(=O)N[C@@H](Cc1c[nH]c2ccccc12)C(N)=O
notes: synthetic linear peptide
As to B6, in experiment [8], the “MC-1 EC50 (average; cAMP HBL)” value was 1 nM. Further, the Ki amounted to 35 nM in [4] and 3420 nM in experiment [5].

B7: Ac-Nle-Ala-Dab-D-Phe-Arg-Ala-Trp-NH2 (peptide)
peptide: Ac-[Nle]A[Dab][dF]RAW-NH2
SMILES: CCCC[C@H](NC(C)=O)C(=O)N[C@@H](C)C(=O)N[C@@H](CCN)C(=O)N[C@H](Cc1ccccc1)C(=O)N[C@@H](CCCNC(=N)N)C(=O)N[C@@H](C)C(=O)N[C@@H](Cc1c[nH]c2ccccc12)C(N)=O
As to B7, in experiment [9], the “MC-1 EC50 (average; cAMP HBL)” value amounted to 0.165 nM.
